Measurements taken from the supplement of paper PMC5998384.

Key:
HeLa Kyoto [1] = assay: solubility in G1/S (NP-40 vs SDS abundance) (log2 ratio); higher = more soluble; settings: cell cycle stage: G1/S
HeLa Kyoto [2] = assay: melting temperature (median over replicates), in situ; higher = more thermally stable
HeLa Kyoto [3] = assay: solubility change mitosis vs G1/S (difference of NP-40 vs SDS log2 ratios) (log2 ratio difference); higher = more soluble in mitosis
HeLa Kyoto [4] = assay: thermal stability score vs G1/S (z-score of summed log2 fold changes over temperatures); higher = more thermally stable than in G1/S
[5] = cell cycle stage: early G1 (4.5 h after nocodazole release)
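Throughout, for melting temperature (median over replicates), in situ: HeLa Kyoto cells synchronized by double thymidine or nocodazole block, proteins quantified by TMT10plex mass spectrometry, three independent biological replicates.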
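Throughout, for solubility change mitosis vs G1/S (difference of NP-40 vs SDS log2 ratios): synchronized HeLa Kyoto cells (double thymidine block for G1/S, nocodazole release for mitosis), protein amounts in NP-40 versus SDS lysates quantified by mass spectrometry, three biological replicates.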
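Throughout, for solubility in G1/S (NP-40 vs SDS abundance): HeLa Kyoto cells arrested at G1/S by double thymidine block, proteins quantified by TMT10plex mass spectrometry in mild NP-40 versus SDS extracts, three biological replicates.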
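Throughout, for thermal stability score vs G1/S (z-score of summed log2 fold changes over temperatures): synchronized HeLa Kyoto cells, proteins quantified by TMT10plex mass spectrometry, three biological replicates, mitosis taken 0.5 h after nocodazole release, G1/S directly after double thymidine block.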

Row | Sequence | solubility in G1/S (log2) (HeLa Kyoto [1]) | melting temperature (HeLa Kyoto [2]; cell cycle stage: G1/S) [°C] | melting temperature (HeLa Kyoto [2]; cell cycle stage: mitosis) [°C] | solubility change mitosis (log2) (HeLa Kyoto [3]) | thermal stability score (HeLa Kyoto [4]; [5]) | thermal stability score (HeLa Kyoto [4]; cell cycle stage: mitosis)
1 | MRLHLLLLLALCGAGTTAAELSYSLRGNWSICNGNGSLELPGAVPGCVHSALFQQGLIQDSYYRFNDLNYRWVSLDNWTYSKEFKIPFEISKWQKVNLILEGVDTVSKILFNEVTIGETDNMFNRYSFDITNVVRDVNSIELRFQSAVLYAAQQSKAHTRYQVPPDCPPLVQKGECHVNFVRKEQCSFSWDWGPSFPTQGIWKDVRIEAYNICHLNYFTFSPIYDKSAQEWNLEIESTFDVVSSKPVGGQVIVAIPKLQTQQTYSIELQPGKRIVELFVNISKNITVETWWPHGHGNQTGYNMTVLFELDGGLNIEKSAKVYFRTVELIEEPIKGSPGLSFYFKINGFPIFLKGSNWIPADSFQDRVTSELLRLLLQSVVDANMNTLRVWGGGIYEQDEFYELCDELGIMVWQDFMFACALYPTDQGFLDSVTAEVAYQIKRLKSHPSIIIWSGNNENEEALMMNWYHISFTDRPIYIKDYVTLYVKNIRELVLAGDKSRPFITSSPTNGAETVAEAWVSQNPNSNYFGDVHFYDYISDCWNWKVFPKARFASEYGYQSWPSFSTLEKVSSTEDWSFNSKFSLHRQHHEGGNKQMLYQAGLHFKLPQSTDPLRTFKDTIYLTQVMQAQCVKTETEFYRRSRSEIVDQQGHTMGALYWQLNDIWQAPSWASLEYGGKWKMLHYFAQNFFAPLLPVGFENENTFYIYGVSDLHSDYSMTLSVRVHTWSSLEPVCSRVTERFVMKGGEAVCLYEEPVSELLRRCGNCTRESCVVSFYLSADHELLSPTNYHFLSSPKEAVGLCKAQITAIISQQGDIFVFDLETSAVAPFVWLDVGSIPGRFSDNGFLMTEKTRTILFYPWEPTSKNELEQSFHVTSLTDIY [MANBA] | -0.0999 | 55.6 | 56 | -0.0887 | -1.93 | -0.28
2 | MDASLEKIADPTLAEMGKNLKEAVKMLEDSQRRTEEENGKKLISGDIPGPLQGSGQDMVSILQLVQNLMHGDEDEEPQSPRIQNIGEQGHMALLGHSLGAYISTLDKEKLRKLTTRILSDTTLWLCRIFRYENGCAYFHEEEREGLAKICRLAIHSRYEDFVVDGFNVLYNKKPVIYLSAAARPGLGQYLCNQLGLPFPCLCRVPCNTVFGSQHQMDVAFLEKLIKDDIERGRLPLLLVANAGTAAVGHTDKIGRLKELCEQYGIWLHVEGVNLATLALGYVSSSVLAAAKCDSMTMTPGPWLGLPAVPAVTLYKHDDPALTLVAGLTSNKPTDKLRALPLWLSLQYLGLDGFVERIKHACQLSQRLQESLKKVNYIKILVEDELSSPVVVFRFFQELPGSDPVFKAVPVPNMTPSGVGRERHSCDALNRWLGEQLKQLVPASGLTVMDLEAEGTCLRFSPLMTAAVLGTRGEDVDQLVACIESKLPVLCCTLQLREEFKQEVEATAGLLYVDDPNWSGIGVVRYEHANDDKSSLKSDPEGENIHAGLLKKLNELESDLTFKIGPEYKSMKSCLYVGMASDNVDAAELVETIAATAREIEENSRLLENMTEVVRKGIQEAQVELQKASEERLLEEGVLRQIPVVGSVLNWFSPVQALQKGRTFNLTAGSLESTEPIYVYKAQGAGVTLPPTPSGSRTKQRLPGQKPFKRSLRGSDALSETSSVSHIEDLEKVERLSSGPEQITLEASSTEGHPGAPSPQHTDQTEAFQKGVPHPEDDHSQVEGPESLR [PDXDC1] | 0.342 | 47.8 | 48.8 | -0.152 | 1.35 | 2.61
3 | MSKSFQQSSLSRDSQGHGRDLSAAGIGLLAAATQSLSMPASLGRMNQGTARLASLMNLGMSSSLNQQGAHSALSSASTSSHNLQSIFNIGSRGPLPLSSQHRGDADQASNILASFGLSARDLDELSRYPEDKITPENLPQILLQLKRRRTEEGPTLSYGRDGRSATREPPYRVPRDDWEEKRHFRRDSFDDRGPSLNPVLDYDHGSRSQESGYYDRMDYEDDRLRDGERCRDDSFFGETSHNYHKFDSEYERMGRGPGPLQERSLFEKKRGAPPSSNIEDFHGLLPKGYPHLCSICDLPVHSNKEWSQHINGASHSRRCQLLLEIYPEWNPDNDTGHTMGDPFMLQQSTNPAPGILGPPPPSFHLGGPAVGPRGNLGAGNGNLQGPRHMQKGRVETSRVVHIMDFQRGKNLRYQLLQLVEPFGVISNHLILNKINEAFIEMATTEDAQAAVDYYTTTPALVFGKPVRVHLSQKYKRIKKPEGKPDQKFDQKQELGRVIHLSNLPHSGYSDSAVLKLAEPYGKIKNYILMRMKSQAFIEMETREDAMAMVDHCLKKALWFQGRCVKVDLSEKYKKLVLRIPNRGIDLLKKDKSRKRSYSPDGKESPSDKKSKTDGSQKTESSTEGKEQEEKSGEDGEKDTKDDQTEQEPNMLLESEDELLVDEEEAAALLESGSSVGDETDLANLGDVASDGKKEPSDKAVKKDGSASAAAKKKLKKVDKIEELDQENEAALENGIKNEENTEPGAESSENADDPNKDTSENADGQSDENKDDYTIPDEYRIGPYQPNVPVGIDYVIPKTGFYCKLCSLFYTNEEVAKNTHCSSLPHYQKLKKFLNKLAEERRQKKET [MATR3] | -0.173 | 45.7 | 48.2 | 0.223 | 9.67 | 19.4
4 | MVSHGSSPSLLEALSSDFLACKICLEQLRAPKTLPCLHTYCQDCLAQLADGGRVRCPECRETVPVPPEGVASFKTNFFVNGLLDLVKARACGDLRAGKPACALCPLVGGTSTGGPATARCLDCADDLCQACADGHRCTRQTHTHRVVDLVGYRAGWYDEEARERQAAQCPQHPGEALRFLCQPCSQLLCRECRLDPHLDHPCLPLAEAVRARRPGLEGLLAGVDNNLVELEAARRVEKEALARLREQAARVGTQVEEAAEGVLRALLAQKQEVLGQLRAHVEAAEEAARERLAELEGREQVARAAAAFARRVLSLGREAEILSLEGAIAQRLRQLQGCPWAPGPAPCLLPQLELHPGLLDKNCHLLRLSFEEQQPQKDGGKDGAGTQGGEESQSRREDEPKTERQGGVQPQAGDGAQTPKEEKAQTTREEGAQTLEEDRAQTPHEDGGPQPHRGGRPNKKKKFKGRLKSISREPSPALGPNLDGSGLLPRPIFYCSFPTRMPGDKRSPRITGLCPFGPREILVADEQNRALKRFSLNGDYKGTVPVPEGCSPCSVAALQSAVAFSASARLYLINPNGEVQWRRALSLSQASHAVAALPSGDRVAVSVAGHVEVYNMEGSLATRFIPGGKASRGLRALVFLTTSPQGHFVGSDWQQNSVVICDGLGQVVGEYKGPGLHGCQPGSVSVDKKGYIFLTLREVNKVVILDPKGSLLGDFLTAYHGLEKPRVTTMVDGRYLVVSLSNGTIHIFRVRSPDS [TRIM56] | -0.379 | 52.4 | 50.7 | 0.0648 | 0.0282 | 0.527
5 | MLARAARGTGALLLRGSLLASGRAPRRASSGLPRNTVVLFVPQQEAWVVERMGRFHRILEPGLNILIPVLDRIRYVQSLKEIVINVPEQSAVTLDNVTLQIDGVLYLRIMDPYKASYGVEDPEYAVTQLAQTTMRSELGKLSLDKVFRERESLNASIVDAINQAADCWGIRCLRYEIKDIHVPPRVKESMQMQVEAERRKRATVLESEGTRESAINVAEGKKQAQILASEAEKAEQINQAAGEASAVLAKAKAKAEAIRILAAALTQHNGDAAASLTVAEQYVSAFSKLAKDSNTILLPSNPGDVTSMVAQAMGVYGALTKAPVPGTPDSLSSGSSRDVQGTDASLDEELDRVKMS [STOML2] | 0.262 | 56.9 | 59.3 | 0.0559 | -3.41 | -3.22
